This experiment has as its target Fas on the cell surface of human Jurkat T cell line (human) (UniProt P25445). Nature of the experiment: cell-based or functional assay.
Sequence of UniProt P25445 (P25445 26-335): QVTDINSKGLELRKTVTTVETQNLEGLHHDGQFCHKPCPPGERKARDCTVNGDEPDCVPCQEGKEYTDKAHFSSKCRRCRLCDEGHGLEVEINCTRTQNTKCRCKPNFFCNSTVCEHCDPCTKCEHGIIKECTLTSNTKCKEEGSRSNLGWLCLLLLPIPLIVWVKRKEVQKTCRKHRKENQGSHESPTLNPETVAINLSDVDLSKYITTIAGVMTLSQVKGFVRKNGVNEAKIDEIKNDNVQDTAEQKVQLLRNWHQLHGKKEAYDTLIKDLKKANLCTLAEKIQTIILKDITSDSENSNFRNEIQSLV

In turn, “streptavidin-FasL fusion protein (SAFasL) (from UniProt P48023 103-281) (ligand)” had a cytotoxicity relative to the anti-Fas antibody of 3 times and a dead cells (Propidium Iodide staining of Jurkat T cells after 24 hr) of 87%.

The values are drawn from US20130224145A1.
